Residue numbers refer to the chain shown, from its start. Names may count otherwise. One block for each binder: values may come before it.
Experiments:
mouse TfR on CHO cells = target: T1, mouse TfR on CHO cells (mouse, UniProt Q62351 1-763); assay: flow cytometry on mouse TfR/CHO cells
T1 construct: also called mouse TfR/CHO
Method: Subsequently, an epitope analysis for various types of TfR antibodies was carried out.

monkey TfR on CHO cells = target: T2, monkey TfR on CHO cells (monkey); assay: flow cytometry of monoclonal phage (scFv) on monkey TfR/CHO cells
T2 construct: also called monkey TfR/CHO cells
T2 chain: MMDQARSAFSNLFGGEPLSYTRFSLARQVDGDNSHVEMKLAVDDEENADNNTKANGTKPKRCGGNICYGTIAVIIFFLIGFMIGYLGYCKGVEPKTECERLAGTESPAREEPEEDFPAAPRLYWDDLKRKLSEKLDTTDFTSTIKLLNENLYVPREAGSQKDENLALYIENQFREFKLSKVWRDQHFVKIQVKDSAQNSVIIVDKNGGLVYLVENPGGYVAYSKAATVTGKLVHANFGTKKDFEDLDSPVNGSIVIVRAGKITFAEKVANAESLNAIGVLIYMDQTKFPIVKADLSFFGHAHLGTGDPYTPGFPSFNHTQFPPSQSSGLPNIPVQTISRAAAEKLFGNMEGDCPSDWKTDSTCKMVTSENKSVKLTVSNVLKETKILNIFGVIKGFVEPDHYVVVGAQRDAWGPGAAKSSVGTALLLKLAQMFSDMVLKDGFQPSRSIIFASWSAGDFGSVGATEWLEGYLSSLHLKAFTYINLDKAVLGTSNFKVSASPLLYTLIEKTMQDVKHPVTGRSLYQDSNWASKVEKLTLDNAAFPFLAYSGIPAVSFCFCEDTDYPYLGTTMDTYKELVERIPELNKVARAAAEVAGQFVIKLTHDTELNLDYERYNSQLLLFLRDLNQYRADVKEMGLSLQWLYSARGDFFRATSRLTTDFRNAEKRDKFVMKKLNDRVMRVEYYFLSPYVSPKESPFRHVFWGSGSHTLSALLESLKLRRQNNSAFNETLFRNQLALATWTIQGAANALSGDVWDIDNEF
Method: (§1) After the reaction was allowed to proceed under 4° C. for 30 minutes, each well was washed 3 times with PBS-T.

chimeric TfR A14 = target: T3, chimeric TfR A14 (human/mouse chimera, UniProt P02786 89-760); assay: ELISA on immobilized chimeric TfR; grade = binding relative to His-huTfR (++ 0.5 or more, + 0.2 to less than 0.5)
T3 construct: also called D204Q-K205S-E369Q
Method: (§2) ELISA was carried out by the following method. To a 96-well immunoplate (NUNC, Inc.) on which an antigen protein was immobilized, 1% (w/v) BSA-PBS(−) pH 7.0 without KCl (hereinafter referred to as blocking solution, Nacalai Tesque, Inc.) was added to perform blocking at room temperature, and thereafter, the anti-TfR antibody diluted with the same solution was added thereto and a reaction was allowed to proceed at room temperature for 1 hour. Thereafter, washing was performed with 0.05% (w/v)-tPBS (1×) without KCl (pH 7.2) (hereinafter referred to as washing solution, Nacalai Tesque, Inc.), Anti-Human IgG (Fc) Goat IgG Fab″-HRP (IBL, Inc.) diluted with the blocking solution was added thereto, and a reaction was allowed to proceed at room temperature for 1 hour. Thereafter, washing was performed with the washing solution, and 1-Step (registered trademark) Ultra TMB-ELISA Substrate Solution (Thermo, Inc.) was added thereto, and a reaction was allowed to proceed at room temperature. The coloring reaction was stopped by adding a 5 N HCl solution, and an absorbance at a wavelength of 450 nm (reference wavelength: 570 nm) was measured using a plate reader (EPOCH 2: BioTek Instruments, Inc.).
(§3) Further, a value obtained by subtracting the absorbance at the reference wavelength of 570 nm from the absorbance at a wavelength of 450 nm was regarded as the binding activity to any of various types of antigen proteins, and a case where a value obtained by dividing the binding activity to any of various types of chimeric TfR by the binding activity to His-huTfR was 0.5 or more was denoted by ++, a case where the value was 0.2 or more and less than 0.5 was denoted by +, and a case where the value was less than 0.2 was denoted by −.

chimeric TfR A03 = target: T4, chimeric TfR A03 (human/mouse chimera, UniProt P02786 89-760); assay: as above
T4 construct: also called D245E-K261E
Method: as §2, §3

[1] = target: T5, huTfR with mouse protease-like domain (human/mouse chimera); assay: as above
T5 construct: His tag added; also called chimeric protein of human TfR extracellular domain with mouse protease-like domain
T5 chain: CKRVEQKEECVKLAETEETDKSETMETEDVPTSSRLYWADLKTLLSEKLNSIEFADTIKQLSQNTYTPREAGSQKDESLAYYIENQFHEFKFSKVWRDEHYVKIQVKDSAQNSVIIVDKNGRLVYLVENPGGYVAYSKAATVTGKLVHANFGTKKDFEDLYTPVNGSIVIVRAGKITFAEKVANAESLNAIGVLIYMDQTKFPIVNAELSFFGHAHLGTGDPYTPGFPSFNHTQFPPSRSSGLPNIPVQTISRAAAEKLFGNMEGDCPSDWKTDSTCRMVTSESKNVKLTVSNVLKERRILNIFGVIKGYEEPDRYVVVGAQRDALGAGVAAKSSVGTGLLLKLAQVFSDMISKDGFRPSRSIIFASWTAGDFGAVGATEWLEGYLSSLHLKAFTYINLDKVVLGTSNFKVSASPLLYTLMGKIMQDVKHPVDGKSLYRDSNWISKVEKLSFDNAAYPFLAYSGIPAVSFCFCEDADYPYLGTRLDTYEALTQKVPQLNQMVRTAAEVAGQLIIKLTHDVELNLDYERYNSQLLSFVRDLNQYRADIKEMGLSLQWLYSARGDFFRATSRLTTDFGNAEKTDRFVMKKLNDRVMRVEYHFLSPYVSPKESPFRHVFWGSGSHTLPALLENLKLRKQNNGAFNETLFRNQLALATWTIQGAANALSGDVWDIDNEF
Method: as §2, §3

chimeric TfR A04 = target: T6, chimeric TfR A04 (human/mouse chimera, UniProt P02786 89-760); assay: as above
T6 construct: also called D245E-K261E-D356R
Method: as §2, §3

chimeric TfR A05 = target: T7, chimeric TfR A05 (human/mouse chimera, UniProt P02786 89-760); assay: as above
T7 construct: also called P249S-L274F
Method: as §2, §3

chimeric TfR A07 = target: T8, chimeric TfR A07 (human/mouse chimera, UniProt P02786 89-760); assay: ELISA on immobilized chimeric TfR
T8 construct: also called M365L-V366E-E369Q
Method: as §2, §3

[2] = target: T9, huTfR with mouse apical domain (human/mouse chimera, UniProt P02786 89-760); assay: ELISA on immobilized chimeric TfR
T9 construct: His tag added; also called chimeric protein of human TfR extracellular domain with mouse apical domain
T9 chain: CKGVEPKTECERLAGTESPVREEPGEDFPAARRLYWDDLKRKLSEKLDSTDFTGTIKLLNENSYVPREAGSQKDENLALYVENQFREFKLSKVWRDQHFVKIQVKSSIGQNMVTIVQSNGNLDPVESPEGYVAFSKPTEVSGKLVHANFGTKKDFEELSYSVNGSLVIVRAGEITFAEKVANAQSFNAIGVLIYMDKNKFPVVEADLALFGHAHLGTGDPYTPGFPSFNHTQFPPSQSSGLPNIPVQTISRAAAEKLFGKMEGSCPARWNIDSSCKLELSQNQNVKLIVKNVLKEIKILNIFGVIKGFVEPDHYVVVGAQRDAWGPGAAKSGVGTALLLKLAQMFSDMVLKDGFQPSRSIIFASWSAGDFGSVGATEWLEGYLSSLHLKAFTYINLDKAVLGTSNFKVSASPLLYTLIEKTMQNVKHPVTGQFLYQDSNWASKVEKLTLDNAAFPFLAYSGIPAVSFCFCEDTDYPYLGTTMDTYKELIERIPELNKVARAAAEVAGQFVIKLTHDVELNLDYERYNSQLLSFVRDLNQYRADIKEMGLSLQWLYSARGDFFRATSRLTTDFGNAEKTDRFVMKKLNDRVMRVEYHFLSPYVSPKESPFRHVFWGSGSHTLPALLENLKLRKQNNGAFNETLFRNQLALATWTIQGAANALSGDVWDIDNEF
Method: as §2, §3

chimeric TfR A02 = target: T10, chimeric TfR A02 (human/mouse chimera, UniProt P02786 89-760); assay: ELISA on immobilized chimeric TfR
T10 construct: also called D352S-S355A-D356R-K358N
T10 chain: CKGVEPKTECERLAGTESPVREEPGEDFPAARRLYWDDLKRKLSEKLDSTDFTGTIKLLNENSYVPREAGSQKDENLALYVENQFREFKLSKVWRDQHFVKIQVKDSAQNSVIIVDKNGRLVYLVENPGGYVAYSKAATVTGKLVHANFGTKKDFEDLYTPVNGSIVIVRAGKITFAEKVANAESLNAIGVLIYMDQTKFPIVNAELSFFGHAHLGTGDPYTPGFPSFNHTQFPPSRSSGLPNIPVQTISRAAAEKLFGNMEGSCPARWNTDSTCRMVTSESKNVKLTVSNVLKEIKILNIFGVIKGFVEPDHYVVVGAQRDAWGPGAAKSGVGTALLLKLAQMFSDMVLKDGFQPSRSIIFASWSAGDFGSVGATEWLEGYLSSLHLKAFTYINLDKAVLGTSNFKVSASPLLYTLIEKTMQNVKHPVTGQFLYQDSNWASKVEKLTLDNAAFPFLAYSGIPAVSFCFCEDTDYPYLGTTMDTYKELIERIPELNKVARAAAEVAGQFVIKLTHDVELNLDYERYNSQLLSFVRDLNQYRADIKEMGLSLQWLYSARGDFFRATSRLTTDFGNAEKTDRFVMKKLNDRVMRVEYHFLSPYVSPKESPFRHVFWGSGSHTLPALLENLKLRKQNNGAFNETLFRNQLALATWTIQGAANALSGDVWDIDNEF
Method: as §2, §3

human TfR on cells = target: T11, human TfR on cells (human, UniProt P02786 1-760); assay: flow cytometry of monoclonal phage (scFv) on human TfR/CHO cells
T11 construct: also called human TfR/CHO; human TfFR/CHO cells
Method: as §1

human EGFR on cells [3] = target: T12, human EGFR on cells (human, UniProt P00533 25-1210); assay: flow cytometry on OE21 cells; x axis PE-A [E]
T12 construct: also called membrane-associated EGFR on OE21 cells

human EGFR-FLAG-Fc = target: T13, human EGFR-FLAG-Fc (human, UniProt P00533 25-638); assay: phage ELISA (scFv) on immobilized human EGFR-Fc
T13 construct: also called human EGFR-Fc
Method: Specifically, it was carried out by adding a phage solution diluted with PBS-T containing 10% Block Ace (manufactured by Dainippon Pharmaceutical Co., Ltd.) to a 96-well immunoplate (NUNC, Inc.) on which an antigen protein was immobilized to allow a reaction to proceed at room temperature for 1 hour, followed by washing with PBS-T, and then, adding an anti-M13 antibody (manufactured by GE Healthcare, Inc.) labeled with horseradish peroxidase diluted with 1% BSA-PBS thereto to allow a reaction to proceed at room temperature for 1 hour.
The confirmation of a clone that specifically recognizes human and monkey EGFR-Fc was carried out by the ELISA method.

monkey EGFR-FLAG-Fc = target: T14, monkey EGFR-FLAG-Fc (monkey, UniProt P55245 25-638); assay: phage ELISA (scFv) on immobilized monkey EGFR-Fc
T14 construct: also called monkey EGFR-Fc; not shown: FLAG-Fc added to the C terminus

human EGFR on cells [4] = target: T12, human EGFR on cells; assay: flow cytometry on OE21 cells; x axis Alexa Fluor 488-A [A]
human EGFR on cells [5] = target: T12, human EGFR on cells; assay: flow cytometry on OE21 cells; x axis Alexa Fluor 488-A [B]

B2: R327 (antibody, V domains shown)
VH: EVQLVETGGGLVQPGGSLRLSCAASGFSFDKYTMNWVRQAPGKGLEWVSVISNGGVSTDYADSVKGRFTVSRDNSKNTLYLQMNSLRAEDMATYYCARASQPWLYRTGADVWGQGTMVTVSS
VL: not shown
notes: also called anti-TfR antibody R327
binding result (mouse TfR on CHO cells): no binding | ratio of ELISA binding activity (A450-A570) to chimeric TfR over that to His-huTfR [1]: ≥ 0.5 ratio

B4: PSM4072 (antibody, V domains shown)
VH: EVQLVETGGGLVQPGGSLRLSCTASGFTFESHAMYWVRQAPGKGLEWVSGISNGGSSTEYADSVRGRFTISRDNSKNTVYLQMNSLRAEDTAVYYCARPRSPYLFYDAAGVWGQGTLVTVSS
VL: not shown
notes: as IgG it has the constant region of human IgG4PE or IgG4PE R409K; also called anti-TfR antibody PSM4072
binding result (monkey TfR on CHO cells): binds | binding result (human TfR on cells): binds

B5: cyno163 (antibody, V domains shown)
VH: B4 VH with T7S, T23A, E30S, S31T, H32Y, Y35S, L117M
VL: not shown
notes: as IgG it has the constant region of human IgG4PE or IgG4PE R409K; also called anti-TfR antibody cyno163
binding result (monkey TfR on CHO cells): binds | binding result (human TfR on cells): binds

B6: KME09 (antibody, V domains shown)
VH: QVQLVQSGAEVKKPGSSVKVSCKASGGTFSSFAWGWVRQAPGQGLEWMGEIRPGFGTEIYAQNFQDRVTFITDEATSTTYMELSSLKSEDTAVYYCARGLLRSGYIDNPCDIWGQGTMVTVSS
VL: DIQMTQSPSSLSASVGDRVTITCRASQGISSWLAWYQQKPEKAPKSLIYAASSLQSGVPSRFSGSGSGTDFTLTISSLQPEDFATYFCQQYYNYPYTFGQGTKLEIK
notes: IgG4PE or IgG4PE R409K; also called anti-EGFR antibody KME09
binding result (human EGFR on cells [3]): binds

B7: E08 (antibody, V domains shown)
VH: EVQLVESGGGLVQPGGSLRLSCAASGFSFNNNAMNWVRQAPGKGLEWVSGIRADGGTTYYADSVKGRFTISRDNSKNTLYLQMNSLRAEDTAVYFCGKTPDWEIFYYAMDAWGQGTTVTVSS
VL: not shown
notes: also called anti-EGFR antibody E08; Clone E08
binding result (human EGFR-FLAG-Fc): binds | binding result (monkey EGFR-FLAG-Fc): binds | binding result (human EGFR on cells [4]): binds

B8: TfR1007 (antibody, V domains shown)
VH: EVQLVESGGGLVQPGGSLSLSCAASGFSFKGYSMSWVRQAPGKGLEWVSSLSNGGGSSYYADSVKGRFTISRDNSKNTLYLQMNSLRAEDTAVYYCAKTLGAYYIKSAMDVWGQGTTVTVSS
VL: not shown
notes: also called anti-TfR antibody TfR1007
ratio of ELISA binding activity (A450-A570) to chimeric TfR over that to His-huTfR [1]: ≥ 0.5 ratio

Next, values leading:

binding result (mouse TfR on CHO cells): no binding | binding result (monkey TfR on CHO cells): binds | ratio of ELISA binding activity (A450-A570) to chimeric TfR over that to His-huTfR (chimeric TfR A14): ≥ 0.5 ratio | ratio of ELISA binding activity (A450-A570) to chimeric TfR over that to His-huTfR (chimeric TfR A03): ≥ 0.5 ratio | ratio of ELISA binding activity (A450-A570) to chimeric TfR over that to His-huTfR [1]: ≥ 0.5 ratio | ratio of ELISA binding activity (A450-A570) to chimeric TfR over that to His-huTfR (chimeric TfR A04): ≥ 0.5 ratio | ratio of ELISA binding activity (A450-A570) to chimeric TfR over that to His-huTfR (chimeric TfR A05): ≥ 0.5 ratio | ratio of ELISA binding activity (A450-A570) to chimeric TfR over that to His-huTfR (chimeric TfR A07): < 0.2 ratio | ratio of ELISA binding activity (A450-A570) to chimeric TfR over that to His-huTfR [2]: < 0.2 ratio | ratio of ELISA binding activity (A450-A570) to chimeric TfR over that to His-huTfR (chimeric TfR A02): < 0.2 ratio
B1: cyno292 (antibody, V domains shown)
VH: QVQLVQSGGGLVKPGGSLRISCTTSGFPFDGYTMTWVRQAPGKGLEWVSSISNGGSTIFVSDSVRGRFTISRDNAKNSLYLQMNNVGAEDTAVYYCARARDAYGWTLPSDIWGQGTMVTVSS
VL: not shown
notes: also called anti-TfR antibody cyno292

binding result (mouse TfR on CHO cells): no binding | ratio of ELISA binding activity (A450-A570) to chimeric TfR over that to His-huTfR [1]: ≥ 0.5 ratio
B3: TfR1071 (antibody, V domains shown)
VH: B2 VH with E1Y, T7S, M117L
VL: not shown
notes: also called anti-TfR antibody TfR1071

binding result (human EGFR-FLAG-Fc): binds | binding result (human EGFR on cells [5]): binds | binding result (monkey EGFR-FLAG-Fc): binds
B9: E12 (antibody, V domains shown)
VH: QVQLVESGGGLVQPGGSLRLSCAASRFTFSAYAMGWVRQAPGKGLEWVSIIDSGGVYTYYADSMKGRFTISRDNSKNTLYLQMNSLRAEDTAVYYCARDHYGVVWGLGDYWGQGTLVTVSS
VL: not shown
notes: also called anti-EGFR antibody E12; Clone E12

Source: US20220017635A1 (Kyowa Kirin, published 2022)
